According to article PMC1931443, “Vertebrate DM domain proteins bind similar DNA sequences and can heterodimerize on DNA” (BMC Molecular Biology, 2007):

B1: DMRT3 (mouse), Myc epitope tagged, in vitro translated (natural protein, UniProt Q80WT2 1-476, looked up)
chain: MNGYGSPYLYMGGPVSQPPRAPLQRTPKCARCRNHGVLSWLKGHKRYCRFKDCTCEKCILIIERQRVMAAQVALRRQQANESLESLIPDSLRALPGPPPPGDAAATAATASQSSPASQASQPPAPPRPTAELAAAAALRWVAEPQPGTLPAQLAKPDLTEERVGDSSSTDNTAEAFSDKDTDQRSSPDVVKSKNCFTPESPEIVSVDEGGYAVQKNGGNPESCPDSPKYHAEQSHLLIEGPSGTVSLPFSLKANRPPLEVLKKIFPNQKPTVLELILKGCGGDLVSAVEVLLSSRSSAAGAERTAEESLVLPSSGHIFEHTLGSYPISSSKWSVGSAFRVPDTLRFSADSSNVVPNPLAVPLQHPFPQPPRYPLMLRNTLARNQSSPFLPNDVTLWNTMTLQQQYQLRSQYVSPFPSNSTSVFRSSPVLSSRTTEDPRISIPDDGCPIVTKQSIYTEDDYDERSDSSDSRILNTSS
notes: DMRT3, mouse; also called tagged DMRT3; source: in vitro translated (TNT Quick Coupled transcription/translation system, Promega, with 20 uM ZnSO4), not purified
B2: DMRT5 (mouse), Myc epitope tagged, in vitro translated (natural protein, UniProt A2A9A2 1-531, looked up)
chain: MELRSELPSVPGAATAAATATGPPVASVASVAAAAAAAASLPVSVAGGLLRAPPLLLRAAEKYPRTPKCARCRNHGVVSALKGHKRYCRWKDCLCAKCTLIAERQRVMAAQVALRRQQAQEENEARELQLLYGTAEGLALAAANGIIPPRPAYEVFGSVCATDGGGPGAGAPAGSAGGAGGAEAKLQKFDLFPKTLLQAGRPDSPQPPPGKPLSPDGADSGPRTSSPEVRPGSGSENGDGESFSGSPLARASKEAGGSCPGSAGAGGGGEEDSPGSSSPLGSESGSEADKEEAEAAPTPGLGGGPGPRQRTPLDILTRVFPGHRRGVLELVLQGCGGDVVQAIEQVLNHHRGGLAAGLGPAAPLEKAAVSAAVEDAWPGRVEAAAAGGAGLPAPLQTGPTAPPHHRPLLAGAMTPGALGSLSSRSAFSPLQPNASHFGADAGAYPLGAPLGLSPLRLAYSAAAAHSRGLAFMAPYSTAGLVPTLGFRPPMDYAFSDLMRDRSAAAAAAVHKEPGYGGGLYGPMVNGTPEKQ
notes: DMRT5, mouse; source: in vitro translated (TNT Quick Coupled transcription/translation system, Promega, with 20 uM ZnSO4), not purified
B3: DMRT1 of the heterodimerization gel shifts (complex not affected by the 9E10 anti-Myc antibody) (natural protein)
chain: not shown
notes: DMRT1, mouse; the construct used in this experiment is not described; The methods describe only a Myc-tagged DMRT1 construct; source: in vitro translated, not purified
B4: DMRT1 (mouse), full-length, amino-terminal Myc epitope tag, in vitro translated (natural protein)
chain: not shown
notes: DMRT1, mouse, full-length protein made by in vitro transcription/translation; also called in vitro translated DMRT1; source: in vitro translated (TNT Quick Coupled transcription/translation system, Promega, with 20 uM ZnSO4), not purified

Assays:
[1] = biological target: the molecule itself; assay: native gel or EMSA; one in vitro translated DMRT protein (4 ul translation mix) with 32P-labelled dsDNA probe bearing the DMRT1 consensus site; monomer and dimer complexes seen on DNA; 10 mM Tris-HCl pH 7.9, 100 mM KCl, 10% glycerol, 5 mM MgCl2, 1 mM spermidine, 0.075% Triton-X-100, 1 mM DTT; on ice 10 min; 5% native gel at 4 C
[2] = biological target: the molecule itself; assay: native gel or EMSA; DMRT1 alone or together with a Myc-tagged DMRT protein (in vitro translated) on labelled DMRT1 consensus probe; composition of the DNA/protein complexes tested by supershift with DMRT1 antibody or anti-Myc 9E10; dimers seen on DNA

Protein	stoichiometry N [1]	stoichiometry N [2]
B1	2	
B2	2	
B3		2
B4	2	
